These are literature values, as cited in patent US20240247069A1, “FGFR3 BINDING MOLECULES AND METHODS OF USE THEREOF” (Regeneron Pharmaceuticals, Inc., priority 2023, published 2024).

Like-named read-outs stand apart in the source and are kept apart here.

For the data set, the system named is FGFR3.
Where [1] appears, read: Table T-3, exemplary FGFR3 D3 binding sequences from cited PCT publications.
Setting [2] is: literature antibodies, sequences from cited PCT publications.

B1: 20B4: anti-FGFR3 domain 3 antibody of WO 2010/002862 A2; VH SEQ ID NO:57, VL SEQ ID NO:58 (antibody, V domains shown)
VH: EIQLQQSGPELVKPGASVKVSCKASGYSLTDYNMYWVKQSHGKSLEWIGYIDPYNGGTSYNQKFKGKATLTVDKSSSTAFMHLNSLTSEDSAVYYCARSLGPDFDYWGQGTTLTVSS
VL: QIVLTQSPAIMSASPGEKVTMTCSASSSVNYMHWYQQKSGTSPKRWIYDTSKLASGVPARFSGSGSGTSYSLTISSMEAEDTATYYCQQWNSNPLTFGAGTKLELK
Regarding B1, the Activity result is, setting by setting: under setting [1], “Antagonistic”; under setting [2], “Antagonistic”.

B2: PRQ-012: anti-FGFR3 domain 2 antibody of WO 2006/048877 A2; VH SEQ ID NO:47, VL SEQ ID NO:27 (antibody, V domains shown)
VH: QVQLKESGPALVKPTQTLTLTCTFSGFSLSTSGVGVGWIRQPPGKALEWLALIDWDDDKYYSTSLKTRLTISKDTSKNQVVLTMTNMDPVDTATYYCARYHSWYEMGYYGSTVGYMFDYWGQGTLVTVSS
VL: DIELTQPPSVSVAPGQTARISCSGDALGDKYASWYQQKPGQAPVLVIYDDSDRPSGIPERFSGSNSGNTATLTISGTQAEDEADYYCQSYDFDFAVFGGGTKLTVLGQ
On to B2, for which the Activity entry under setting [2] is “Antagonistic”.

B3: MS-PRQ-12: anti-FGFR3 Ig-like domain 2 antibody of WO 2002/102972 A2; VH SEQ ID NO:26, VL SEQ ID NO:27 (antibody, V domains shown)
VH: QVQLKESGPALVKPQTLTLTCTFSGFSLSTSGVGVGWIRQPPGKALEWLALIDWDDDKYYSTSLKTRLTISKDTSKNQVVLTMTNMDPVDTATYYCARYHSWYEMGYYGSTVGYMFDYWGQGTLVTVSS
VL: DIELTQPPSVSVAPGQTARISCSGDALGDKYASWYQQKPGQAPVLVIYDDSDRPSGIPERFSGSNSGNTATLTISGTQAEDEADYYCQSYDFDFAVFGGGTKLTVLGQ
Turning to B3, the Activity entry under setting [2] is “Antagonistic”.

B4: MS-Pro-54: anti-FGFR3 Ig-like domain 3 antibody of WO 2002/102972 A2; VH SEQ ID NO:42, VL SEQ ID NO:43 (antibody, V domains shown)
VH: QVQLVQSGAEVKKPGASVKVSCKASGYTFTSYYMHWVRQAPGQGLEWMGWINPNSGGTNYAQKFQGRVTMTRDTSISTAYMELSSLRSEDTAVYYCARNMAYTNYQYVNMPHFDYWGQGTLVTVSS
VL: DIELTQPPSVSVAPGQTARISCSGDALGDKYASWYQQKPGQAPVLVIYDDSDRPSGIPERFSGSNSGNTATLTISGTQAEDEADYCQSYDYFKLVFGGGTKLTVLGQ
As to B4, the Activity result runs as follows: under setting [1], “Antagonistic”; under setting [2], “Antagonistic”.

B5: PRQ-054: anti-FGFR3 IIIc antibody of WO 2006/048877 A2; VH SEQ ID NO:42, VL SEQ ID NO:50 (antibody, V domains shown)
VH: QVQLVQSGAEVKKPGASVKVSCKASGYTFTSYYMHWVRQAPGQGLEWMGWINPNSGGTNYAQKFQGRVTMTRDTSISTAYMELSSLRSEDTAVYYCARNMAYTNYQYVNMPHFDYWGQGTLVTVSS
VL: DIELTQPPSVSVAPGQTARISCSGDALGDKYASWYQQKPGQAPVLVIYDDSDRPSGIPERFSGSNSGNTATLTISGTQAEDEADYYCQSYDYFKLVFGGGTKLTVLGQ
On to B5, for which the Activity result was “Antagonistic” under setting [1] and “Antagonistic” under setting [2].

B6: 15D8: anti-FGFR3 domain 3 antibody of WO 2010/002862 A2; VH SEQ ID NO:51, VL SEQ ID NO:52 (antibody, V domains shown)
VH: EIQLQQSGPELVKPGASVKVSCKASGYAFTSYNMYWVKQSHGKSLEWIGYIDPYNGGTSYNQKFKGKATLTVDKSSSTAYMHLNSLTSEDSAVYYCAREGGNYEAWFAYWGQGTLVTVSA
VL: QIVLTQSPALMSASPGEKVTMTCSASSSVSYMYWYQQKPRSSPKPWIYLTSYLASGVPARFSGSGSGTSYSLTISSMEAEDAATYYCQQWSSYPLTFGAGTKLELK
Turning to B6, the Activity result by setting is: under setting [1], “Antagonistic”; under setting [2], “Antagonistic”.

B7: 4E7(7D12): anti-FGFR3 domain 3 antibody of WO 2010/002862 A2; VH SEQ ID NO:56, VL SEQ ID NO:54 (antibody, V domains shown)
VH: EIQLQQSGPELVKPGASVKVSCKASGYAFTSYNMYWVKQSHGKSLEWIGYIDPYNGGTRYNQKFKGKATLTVDKSSSTAYMHLNSLTSEDSAVYYCAREGGNYEAWFAYWGQGTLVTVSA
VL: QIVLTQSPALMSASPGEKVTMTCSASSSVSYMYWYQQKPRSSPKPWIYLTSNLASGVPARFSGSGSGTSYSLTISSMEAEDAATYYCQQWSSNPLTFGAGTKLELK
On to B7, for which the Activity entry is “Antagonistic” under setting [1] and “Antagonistic” under setting [2].

B8: 2G4: anti-FGFR3 domain 3 antibody of WO 2010/002862 A2; VH SEQ ID NO:55, VL SEQ ID NO:54 (antibody, V domains shown)
VH: EIQLQQSGPELVKPGASVKVSCKASGYAFTSYNMYWVKQSHGKSLEWIGYIDPYNGGTRDNQKFKGKATLTVDKSSSTAYMHLNSLTSEDSAVYYCAREGGNYEAWFAYWGQGTLVTVSA
VL: QIVLTQSPALMSASPGEKVTMTCSASSSVSYMYWYQQKPRSSPKPWIYLTSNLASGVPARFSGSGSGTSYSLTISSMEAEDAATYYCQQWSSNPLTFGAGTKLELK
For B8, the Activity entry under setting [1] is given as “Antagonistic” and the Activity result under setting [2] is recorded as “Antagonistic”.

B9: 27H2: anti-FGFR3 domain 3 antibody of WO 2010/002862 A2; VH SEQ ID NO:53, VL SEQ ID NO:54 (antibody, V domains shown)
VH: EIQLQQSGPELVKPGASVKVSCKASGYAFTSYNMYWVKQSHGKSLEWIGYIDPYNGGTRYNQKFKGKATMTVDKSSSTAYMHLNSLTSEDSAVYYCAREGGNYEAWFAYWGQGTLVTVSA
VL: QIVLTQSPALMSASPGEKVTMTCSASSSVSYMYWYQQKPRSSPKPWIYLTSNLASGVPARFSGSGSGTSYSLTISSMEAEDAATYYCQQWSSNPLTFGAGTKLELK
B9: the Activity entry is on record as “Antagonistic” under setting [1] and “Antagonistic” under setting [2].

B10: PRQ-026: anti-FGFR3 IIIc antibody of WO 2006/048877 A2; VH SEQ ID NO:36, VL SEQ ID NO:37 (antibody, V domains shown)
VH: QVQLVQSGAEVKKPGASVKVSCKASGYTFTSYYMHWVRQAPGQGLEWMGWINPNSGGTNYAQKFQGRVTMTRDTSISTAYMELSSLRSEDTAVYYCARGYWYAYFTYINYGYFDNWGQGTLVTVSS
VL: DIALTQPASVSGSPGQSITISCTGTSSDVGGYNYVSWYQQHPGKAPKLMIYDVSNRPSGVSNRFSGSKSGNTASLTISGLQAEDEADYYCQSYDNNSDWFGGGTKLTVLGQ
In the case of B10, the Activity entry was “Antagonistic” under setting [1] and “Antagonistic” under setting [2].

B11: PRQ-029: anti-FGFR3 IIIc antibody of WO 2006/048877 A2; VH SEQ ID NO:40, VL SEQ ID NO:49 (antibody, V domains shown)
VH: QVQLVQSGAEVKKPGASVKVSCKASGYTFTSYYMHWVRQAPGQGLEWMGWINPNSGGTNYAQKFQGRVTMTRDTSISTAYMELSSLRSEDTAVYYCARTWQYSYFYYLDGGYYFDIWGQGTLVTVSS
VL: DIVLTQSPATLSLSPGERATLSCRASQSVSSSYLAWYQQKPGQAPRLLIYGASSRATGVPARFSGSGSGTDFTLTISSLEPEDFATYYCQQTNNAPVTFGQGTKVEIKRT
B11: the Activity result under setting [1] is reported as “Antagonistic” and the Activity entry under setting [2] is given as “Antagonistic”.

B12: PRQ-001: anti-FGFR3 domain 2 antibody of WO 2006/048877 A2; VH SEQ ID NO:46, VL SEQ ID NO:29 (antibody, V domains shown)
VH: QVQLQQSGPGLVKPSQTLSLTCAISGDSVSSNSAAWNWIRQSPGRGLEWLGRTYYRSKWYNDYAVSVKSRITINPDTSKNQFSLQLNSVTPEDTAVYYCARSYYPDFDYWGQGTLVTVSS
VL: DIELTQPPSVSVAPGQTARISCSGDALGDKYASWYQQKPGQAPVLVIYDDSDRPSGIPERFSGSNSGNTATLTISGTQAEDEADYYCQSYDGPDLWVFGGGTKLTVLGQ
In the case of B12, the Activity result under setting [2] was “Antagonistic”.

B13: PRQ-002: anti-FGFR3 domain 2 antibody of WO 2006/048877 A2; VH SEQ ID NO:24, VL SEQ ID NO:25 (antibody, V domains shown)
VH: QVQLVQSGAEVKKPGASVKVSCKASGYTFTSYYMHWVRQAPGQGLEWMGWINPNSGGTNYAQKFQGRVTMTRDTSISTAYMELSSLRSEDTAVYYCARDFLGYEFDYWGQGTLVTVSS
VL: DIELTQPPSVSVAPGQTARISCSGDALGDKYASWYQQKPGQAPVLVIYDDSDRPSGIPERFSGSNSGNTATLTISGTQAEDEADYYCQSYDYSADYVFGGGTKLTVLGQ
On to B13, for which the Activity result under setting [2] is given as “Antagonistic”.

B14: MS-Pro-55: anti-FGFR3 Ig-like domain 3 antibody of WO 2002/102972 A2; VH SEQ ID NO:44, VL SEQ ID NO:45 (antibody, V domains shown)
VH: QVQLVQSGAEVKKPGASVKVSCKASGYTFTSYYMHWVRQAPGQGLEWMGWINPNSGGTNYAQKFQGRVTMTRDTSISTAYMELSSLRSEDTAVYYCARSMNSTMYWYLRRVLFDHWGQGTLVTVSS
VL: DIALTQPASVSGSPGQSITISCTGTSSDVGGYNYVSWYQQHPGKAPKLMIYDVSNRPSGVSNRFSGSKSGNTASLTISGLQAEDEADYYCQSYDMYNYIVFGGGTKLTVLGQ
With B14, the Activity entry by setting is: under setting [1], “Antagonistic”; under setting [2], “Antagonistic”.

B15: PRQ-055: anti-FGFR3 IIIc antibody of WO 2006/048877 A2; VH SEQ ID NO:44, VL SEQ ID NO:45 (antibody, V domains shown)
VH: QVQLVQSGAEVKKPGASVKVSCKASGYTFTSYYMHWVRQAPGQGLEWMGWINPNSGGTNYAQKFQGRVTMTRDTSISTAYMELSSLRSEDTAVYYCARSMNSTMYWYLRRVLFDHWGQGTLVTVSS
VL: DIALTQPASVSGSPGQSITISCTGTSSDVGGYNYVSWYQQHPGKAPKLMIYDVSNRPSGVSNRFSGSKSGNTASLTISGLQAEDEADYYCQSYDMYNYIVFGGGTKLTVLGQ
In the case of B15, the Activity entry under setting [1] is given as “Antagonistic” and the Activity result under setting [2] was “Antagonistic”.
